Article PMC3587573
Blank lines part the entries; values can stand above or below the substance they belong to.

Columns and labels:
BvPIP1;1 (Beta vulgaris) [1] = target: BvPIP1;1 (Beta vulgaris)
BvPIP1;1 (Beta vulgaris) [2] = target: BvPIP1;1 (Beta vulgaris); remark: listed apart in the source

maximal inhibition of Pf by cytosolic acidification in oocytes co-injected with BvPIP2;1 and BvPIP1;1 cRNA (1:1 mass ratio); not significantly different from BvPIP2;1 alone (BvPIP1;1 (Beta vulgaris) [1]): 87%
Substance: BvPIP2;1 (natural protein)

oocyte membrane Pf on co-injection of BvPIP1;1 and BvPIP2;1 N64H/E65Q cRNA, against the mutant alone (BvPIP1;1 (Beta vulgaris) [2]): 4.3 fold
Substance: BvPIP2;1 N64H/E65Q (natural protein)

oocyte membrane Pf on co-injection of BvPIP1;1 and BvPIP2;1 N64I/E65Q cRNA, against the mutant alone (BvPIP1;1 (Beta vulgaris) [2]): 4.1 fold
Substance: BvPIP2;1 N64I/E65Q (natural protein)
